Results on one protein are retold here after US20070031956A1 (VERTEX PHARMACEUTICALS, published 2007).

What is called Kd is the constant that tells how readily two partners part at equilibrium. High values mean lower affinity, low ones higher affinity.

The data set concerns the molecule itself. Nature of the data set: analytical ultracentrifugation (sedimentation velocity), monomer-dimer self-association. As to the method: All sedimentation velocity experiments were performed with the Beckman Coulter Optima XL-I using an An60 Ti rotor and charcoal-filled Epon double-sector cells. […] Experiments were performed at 42,000 rpm for 8 h at 20° C. Radial absorbance scans were collected in continuous scan mode at 280 nm every 10 min at a spacing of 0.001 cm.

B1: Full-length human Pim-1 kinase (residues M1-K313) with N-terminal HexaHis tag and thrombin cleavage site (enzyme)
chain: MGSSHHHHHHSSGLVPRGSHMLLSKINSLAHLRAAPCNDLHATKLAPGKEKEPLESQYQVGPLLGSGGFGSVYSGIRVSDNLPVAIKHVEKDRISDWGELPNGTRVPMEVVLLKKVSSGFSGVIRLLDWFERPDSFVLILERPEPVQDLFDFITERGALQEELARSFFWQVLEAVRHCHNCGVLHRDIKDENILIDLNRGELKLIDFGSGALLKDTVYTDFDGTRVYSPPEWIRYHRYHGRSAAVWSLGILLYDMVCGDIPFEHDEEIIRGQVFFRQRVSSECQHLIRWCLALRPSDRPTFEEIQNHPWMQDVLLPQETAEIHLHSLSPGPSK
modifications: heterogeneous phosphorylation (mixture of species with 0-5 phosphoryl groups): extensively phosphorylated in the HexaHis tag region; Ser261 major site in Pools III and IV; minor sites Ser8, Thr23 and Ser98
notes: Expressed in E. coli and purified by TALON, Superdex 200 and MonoQ; also called Pim-1 protein
As to B1, the Kd is 23 µM and the “monomer:dimer ratio (dimer share)” value came out at 20.
